The values below come from a protein production outcome set (Wang et al. 2014).

This series is described as follows: label from the status in PepcDB records.
With “MLLDYDFLLLLNDESGKPTRYYYLLQDFEKDFVAREVAQNKTKRFVKEIIGSEKASKTKNSAIEVSNTKASAMKNETIGSGDLKKVCEKIKSALPFGIISAFKPFKDAFYRDFNHNEQKLLIGAAKSGCIQSSADKLAQLKTRLLYWQDKSVKVDWDKPILIKDFFKGNNYLYRRFCFLLGKHFMDRFLKNNAKASVKDFMSSKEFVAKYRYTPKQNTERAKKLQSYLENKRDFIGFVQALNSLKDNPQDPFLPNEETSFLVFANEPTIVFNLRDYLLVLAQIFNQQAICYCESKCPIELINASPGKDFNKTQDSFPDIKFSTPNQLEQSLNALKNKLAAFFSKHPDKHNGMEFNEIAKTQIEALYMPQSSDGFDDFRKHLEESIKSFIRAKKNRYGFPKIFDVADIEQEERKVIEWREKERASKQSYKQNLQINKIANDLKRDKVVDKRTILSVIDADLDRGFIPPKDLLKQLEKISASLSKDIVIAIKQVEKLELSYALIDNIQHNTLDDTLDFTFIVGDSLSVQSLYVTFDLVIDMDRPMSEQFLNHIGELGSFESRERALEWVRLSQAKLIIETPREALKNAQLSQIEEILTGCIFNGAYRLQNDLKGNRHGNFK”, the protein production result is given as “failed”.

As to “MLLLHNARILDLTDGSTGEPTDVLLSDRVLALGPEAQQQAHSARVRSIDLGGRLLMPGLWDEHVHVGQWALASRRFLVSQTASCETALEEVATHVKRREGSDEPILQGFGFRPSLWGSNPNARQLDAVTGDRAVILVSADLHSSWCNTAAMRKLGIEGDGFLREQTSFDVQTQLSQVNPHVLDGWVGSCSTAAARLGITGIRDMEFSTDVETWLQRKADGRCPLRVEVSVYPERLDEAIAQVLATGQAPATDKPGPSRVAMGPLKVIVDGSMSTRTAWCMDSYPAGAGPDGAGIDSVTPEDLVDLMNRAKTGNLQCAAHAIGDRAAKEVLNAFEVTGISGSIEHAQVLTDADVRRFAALGVRASVQPLHLVDDRDATDVMWSDRADRCFRFADMVRAGTELALGSDAPVSPVDPWGAIRVAVERTGDRRPSWHPEQALTLSQAITASTRHVTQVVTGGPGDVIAVAHNPFDLSGNALAGITSDLTVVGGEVTAAAL”, the protein production result is on record as “failed”.

With “MLLLTPGPTPIPERVQKALLRPMRGHLDPEVLRVNRAIQERLAALFDPGEGALVAALAGSGSLGMEAGLANLDRGPVLVLVNGAFSQRVAEMAALHGLDPEVLDFPPGEPVDPEAVARALKRRRYRMVALVHGETSTGVLNPAEAIGALAKEAGALFFLDAVTTLGMLPFSMRAMGVDYAFTGSQKCLSAPPGLAPIAASLEARKAFTGKRGWYLDLARVAEHWERGGYHHTTPVLLHYALLEALDLVLEEGVAARERRAREVYAWVLEELKARGFRPYPKASPLPTVLVVRPPEGVDADRLVRALYAEGVAVAGGIGPTRGQVLRLGLMGEGARREAYQAFLKALDRALALA”, the protein production result is “not failed”.

Turning to “MLLLWLVVLVLGVAYLAHRRTPPAPALGISAAYLILMGVFSHAPGWLLLVFWLLWLAVALPLALPDLRRRVLSGPLFAWFQKVLPPMSDTEREAIEAGTVWWDGELFSGRPDWQKLLDYPKAQLTEEEQAFVDGPTEELCAMVSDWDIGQRMDLPEEAWAFIKQHGFFGLIIPKEYGGKGFSAFAHSQVVMKLATRSGDLASTVMVPNSLGPAELLLHYGTDEQRQRYLPSLAKGDDIPCFALTGPYAGSDAGGMTDVGIVCKGEWEGREVLGLRLTWEKRYITLGPVATLLGLAFKCHDPDHLLGDEEDLGITLALIPTDTPGVEIGRRHVPLGAAFMNGPNSGKDVFVPLEYIIGGQEMIGKGWMMLMNCLSVGRSISLPAVGTSAGKASSYVSGRYAQVREQFNVPIAAFEGIQEALARIGGNAWLMDSARILTANAVDLGEKPSVLSAILKYHLTERGRECIAHAMDIHGGKGIIMGPNNYLGRSWQGAPIFITVEGANILSRNLMIFGQGAIRCHPYVLKEMELAQREDKDQAAREFDALLVKHIGFAVGNAASSFLLSLSCGHLGNAPGDRISRPYFRALNRLAASFALLADFSMMLLGGELKRKERLSARLGDVLSYLYLGSAALKRYHDLGNPDYLHPLLRWAMEENLGKAEAALEDLLNNFPSRFFGCALKVLVLPFGRRHKGPGDELDAEIAEILGRPDDDPALQAILAGAFLPKDPQDPVGALAHAFDAVRESAALEKTLHKAIKEGRVQPQAGQNPIDAGAAAGVLSAEQAQALHQAEAARRKVIDVDDFAKEELQLADGRIR”, the protein production entry is listed as “failed”.

As for “MLLSHAFGLFTHPEDEWVSIKKEHEHPTRLYVAYVVVLAAIAPICAYISTAHFGWSIGSERLIKLTEISALQMSVLTYLAMLVGVFALGYAINWMAKTYGAKEEHVPSNGIALAAYSCTPLFLAGFALLYPVPWFNAVVFLAAACYGAWLMYDGLPIVMGIEKERAVMYGGALLTVALVILVSTRVGSVILWNLGLGPVFVSG”, the protein production result was “failed”.

For the sequence “MLLSSCQSLFSPAYQSTLRPSDNPQTVEQVQKNDPRAQMGAREHPRIVASYGGEYRDAKTERLVARIAGALTAVSENPQQSYRITILNSPAINAFALPGGYLYVTRGLLALANDASEVAAVLSHEMGHVTANHGIERQRREEAEVIASRVVAEVLSSDLAGKQALARGKLRLAAFSRQQELQADVIGVRMLGEAGYDPYASPRFLDSMAAYARFSSADPENDQSLDFLSSHPNTPQRIELARRHARAFGQEGQVGDRGRDWFLDGIDGLLYGDSPQEGYVRGQTFLHGTLGIRFDVPEGFVIDNKVEAVLATGPGDMAIRFDGVADPKQTSLANYLTSGWVAGLLPETVKETQINGLEAATARASADKWDFDVTVIRVGQQIFRFLTAVPKGNTQLDSIANVLRTSFRKMTPQEIASLKPLRVRVVTVKPGETVATMAARMMGTERKLDMFRMINAMSATATLQPGQRVKIISELEHHHHHH”, the protein production entry is listed as “failed”.

With “MLLTATLLGLIAALGILDGRLLGVSMIDRPLVMCALTGLVCGNLHEGILIGATLELIFLGNVAIGAAVPPDVVTGSVLATAFSIMSGRGPEAALTIAIPISMLAQTLGVLVRVVNARFGHMADRYAAQGNTRMVAVMHLGGPTLLYFLSGFLPVFFAILLGSAAVTWFLDAIPAFITNGLVVASKILPALGFALLISMMLSSKLMPYLGLGFLIAAYTKLDIIAIALFAVVLAFIISQFLNTSQQEG”, the protein production entry was “failed”.

For “MLLTIIYIIAITAEAMTGALSAGRRSMDWFGVILIACVTALGGGSVRDVLLGHYPLTWVKHPEYLVLTCCAALFTILIAKWMRHLRNIFLILDALGLIGFTIIGCQIALQMGHGFVVSAVAGVLTGVSGGILRDILCNDVPLVFRRELYASISFVAVICYWLCLNIGMSLELTVIFTLIFGFVLRLIAIYFGLEMPKFIYQEDDADSASSTDKH”, the protein production result was “failed”.

As to “MLLTREYIDKAFWQKLIAIGLPVSLQSMLFALLGVVDIFMVSLLGESATAAVGVGNRIFFFNLAVVFGLCGAVTVLASQYYGSGNMAGIRRTLAQSWCISILVTLPFIVLYAIFDEEIVSFMSDDPEYVTYARDYLVVTGFSLIATAIVVPIEAVLRSVGQTKLATNVSISAIVVNAVLNSVLIFGLFGFPQWGVFGAAVGTFVSRFFQTAVLIYFFYNRYAHLIPTKFDWAQGRLKQYRQKYFKVSLPMLVHDALWTGGLIVYSIIYGQLGVSELAIISFLSPIEGVLISTFMGFAVAASVLLGNDIGAKHYDRVEKTAWWYVLTSAILATLLFFLVWLSSPLIHHLLVLSPLTDAEMALNVCLVMALGMILRVFNMVGIGGVLKSGADIRYSIFIDTFGQWAIGIPLTYYTGMVLGLPLHFVLMSLLAEEFVKGVLTTYRIQSKRWINNMVEDDQTVTA”, the protein production result was “failed”.

For “MLLYVLIISNDKKLIEEARKMAEKANLELRTVKTEDELKKYLEEFRKESQNIKVLILVSNDEELDKAKELAQKMEIDVRTRKVTSPDEAKRWIKEFSEEGGSLEHHHHHH”, the protein production entry is recorded as “not failed”.

As for “MLMEIRESVKERIEEIIKEIAPQWEGEIELKETPDPKLGDFGTPIAFKLAKLLKRPPIEIAEKIVEKLKLNLPEGIKDVKAVNGYINVFIDYPHFARILINDILAKGDRFGSSEIGKGKKVIVEHTSVNPTKPLHMGHARNAILGDVMARILRFLGYEVEVQNYIDDLGIQFAQVYWGYLRLKEEFERIMNELRERGLKDNPIDHALGLLYVEVNRRLEDNPELENEIRDIMKKLESGELYGRKLAEEVVRAQMVTTYKLGVKYDLLVWESDIVRRKLFEIALELLSKNENFYIPSDGKYRGAFVMDLRKLFPDMKNPILVLRRSDGTATYTGKDIAYHLWKFGKIDVDLLYKEWDSTTWTTAPDGKSMPNKFGNANIVINVIGAEQKHPQLAIKYALQLLGFEDAAANLYHLAYEHVERPEGKFSGRKGTWVGFTVDEVIQEAVKRARELIEEKNPALSDEEKAEVAEKVGIGAIRYNLIKYSPDKKIIFRWEDVLNFEGESAPYIQYAHARCSSILRKAEEEGIKVDPETLFKNADFTKLSERERELVIMLSKFPRIVEQAGKDVKPHLIAWFANELASLFNKFYMDHPVLKAEEGVREARLLLVMAVEQVLKNALYLMGIEAPERM”, the protein production entry was “not failed”.

For “MLMEVKALAHAKNDSVAVATDDLKEGEEIQVAFLDNNEKTKITTAEVIPLGHKISLKDIKKGENVIEYGEVIGAATKDIKRGEHVHIHNIKSLRW”, the protein production entry was “not failed”.

For the sequence “MLMPRRMKYRKQQRGRLKGATKGGDYVAFGDYGLVALEPAWITAQQIEAARVAMVRHFRRGGKIFIRIFPDKPYTKKPLEVRMGKGKGNVEGYVAVVKPGRVMFEVAGVTEEQAMEALRIAGHKLPIKTKIVRRDAYDEAQ”, the protein production entry is recorded as “not failed”.

In the case of “MLMSFILLISTSMILISVFSYVLIALIVLGIVLSLISLLSPRVSYVSSVYLIGLTVYLNPGFSLTQSLINTVPILGEINMLSGLLKTPVTSIISSLFSLALLNLGIKGYEIYLSKHADIVKLDSIIFSQHGLPKQANWNIVVNSEVKLLKSNEKLILSNTPEAKYELCPTLVDHKYYVPNKVTGLAFEGEVIRINYSPVDGVPYEKFRNCFTVFEVEGLPPDTSFVIEINGASLKLKDRKFAKLSLEPLYWKVNEIRISREDEEEIYEPDIKEGLTFRGGTVKINFRRKVIRYKTAKIPSIENWDPGIWVGQEVYGYRVIEVIGLGGNGYVMKVEKNGLLYAMKVLSVNKFTNSLEHFDNLLKESENLEKLSKDPRLVSIYGSFVDKNNIQSALAGDYTSYYKYPPAIIMEFMEGGTLFDLISRVDLVQSKYWQYIVKLVIKEIAKALTFLHKRGYVHLDVKPQNIFLKEKINGEPEVVYKILSSTPGIIKLGDLGSAVRVGEKITQATPAYSPPEQIEAVITGKGAQPSMDNYALGVTLYKLLTMKNLDYVNYLDKAFDEYIKGDPSIAMKYINMAKMSMVNFKPKLPHNTLPELANVVQGTLVVDPKRRLTSYDIVKILEG”, the protein production entry is reported as “failed”.

Take “MLNADVKETIHYVDENGKELAGTYTKDVHYTRTATVHYDQNGNATVTYGEWKADGSFDKVANPDIDGYFTLDKGVDGKTVTDPQNQADFVENVIYYKTDQNVTPLEHHHHHH”: the protein production entry is recorded as “not failed”.

Turning to “MLNDGVYLAQARGMAGFVHAKLTVKDNKIVGVDLDLTTETPENKPKVEQQLKKEILTRQSADIDAVSGATFTSNGVKEAVQQTLKQAEKLEHHHHHH”, the protein production result is on record as “not failed”.

For the sequence “MLNDILTGYGIFILEILTILLLILAVVGLIISYRQHNKSKVGELEIKDLSEEFNEQVRLLRDFNLSEEEQKQRTKAEKKAEKQNAKKRKEKLKKGETLEDEKKACVYVLDFCGDISASETTALREEISAILNVAKSEDEVLLRLESPGGIVHNYGFAASQLSRLKQKGIKLTVAVDKVAASGGYMMACVADKIVSAPFAVIGSIGVVAQIPNVHRLLKKHDVDVDVMTAGEFKRTVTVLGENTEKGKQKFQQELEETHKLFKQFVSQNRPCLDIDKIATGEHWFGQQAIALQLVDEISTSDDLILEKMKEKQVLNVKYRLKKSLIKKFGRQAEESAINIIHRYSTKQSRDFMYLEHHHHHH”, the protein production entry is “failed”.

Regarding “MLNDKMYHGKGLRKGDLRLYHELYNLQVMKWPVNPLDVIIEKIKRREGNGVIADIGCGEARIAREFENVISLDLHPVGKDVIPCDMRRRIPLDDGSVDVAVCCLSMMVEDIAVPTKEINRILRNGGHWYIAEVRSRIPSVGLLERKFESLGFDVEHVDVSNAQFVLFVLQK”, the protein production entry is “failed”.
